{"source": "paper PMC8405992", "origin": "cited, not measured here", "key": {"[1]": {"target": "Ubp6 UBL (Saccharomyces cerevisiae) (UniProt P43593)", "sequence (P43593 6-80)": "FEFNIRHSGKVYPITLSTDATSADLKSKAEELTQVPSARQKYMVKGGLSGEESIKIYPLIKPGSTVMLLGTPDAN"}, "[2]": {"target": "Dsk2 UBL (Saccharomyces cerevisiae) (UniProt P48510)", "sequence (P48510 1-76)": "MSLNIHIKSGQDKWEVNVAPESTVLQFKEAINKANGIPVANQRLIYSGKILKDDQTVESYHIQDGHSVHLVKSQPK"}, "[3]": {"target": "Ubp6 UBL (Saccharomyces cerevisiae) (UniProt P43593)", "remark": "listed apart in the source"}, "[4]": {"target": "Dsk2 UBL (Saccharomyces cerevisiae) (UniProt P48510)", "remark": "listed apart in the source"}, "[5]": {"target": "Rad23-UBL UBL (Saccharomyces cerevisiae) (UniProt P32628)", "sequence (P32628 1-77)": "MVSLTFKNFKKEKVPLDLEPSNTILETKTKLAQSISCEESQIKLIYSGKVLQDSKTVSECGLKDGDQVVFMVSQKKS"}, "[6]": {"target": "Rad23 UBL (Saccharomyces cerevisiae) (UniProt P32628)", "sequence (P32628 1-77)": "as above"}}, "note": "Like-named read-outs stand apart in the source and are kept apart here.", "data": [{"substance": "Rpn1 (from UniProt P38764)", "values": [{"measurement": "Kd", "setting": "[1]", "value": 2, "unit": "µM"}, {"measurement": "Kd", "setting": "[2]", "value": 12, "unit": "µM"}]}, {"substance": "Rpn1 391-642 (from UniProt P38764)", "values": [{"measurement": "Kd", "setting": "[3]", "value": 40, "unit": "µM"}, {"measurement": "Kd", "setting": "[4]", "value": 22, "unit": "µM"}]}, {"substance": "Rpn1 T1 site (from UniProt P38764)", "values": [{"measurement": "Kd", "setting": "[5]", "value": 0.064, "unit": "µM"}, {"measurement": "Kd", "setting": "[6]", "value": 0.064, "unit": "µM"}]}]}
